Numbering of substitutions follows the chain as printed.
Assays:
[1] = molecular target: T1, cynomolgus CD47, on CHOK1-cCD47 stable cell line (cynomolgus); assay: flow cytometry (FACS) on CHOK1-cynoCD47 cells, mean fluorescence intensity
T1 construct: whole, on cells; check before use; also called CHOK1/cynoCD47; monkey-derived CD47
Experimental: (§1) The CHOK1-hCD47 stable cell lines and CHOK1-cCD47 stable cell lines were expanded to 90% confluence in a T-75 cell culture flask, the medium was exhausted, washed twice with HBSS buffer (Hanks balanced salt solution) (purchased from Invitrogen), and then treated and collected with enzyme-free cell dissociation solution (Versene solution: purchased from Life technology). The cells were washed twice with HBSS buffer. After counted, the cells were diluted with HBSS to 2×10⁶ cells per ml, added with 1% goat serum blocking solution, wherein the percentage was the mass percantage, incubated on ice for 30 minutes, and then washed twice with HBSS by centrifugation. […] The plate was washed 3 times with FACS buffer by centrifugation, added with 100 μl fixative solution [4% (v/v) Paraformaldehyde] per well to suspend the cells. 10 minutes later, it was washed twice with FACS buffer by centrifugation. The cells were suspended with 100 microliters of FACS buffer, FACS (FACS Calibur, purchased from BD) was used for detection and the results were analyzed.

[2] = molecular target: T2, His-tagged CD47 recombinant protein, CD47-His (human, UniProt Q08722 19-141, limits assumed); assay: ELISA on coated CD47-His; Ab 0 nM (background)
T2 construct: it is not restated for CD47-His; also called human CD47-His protein; antigen CD47-His; not shown: His tag

[3] = molecular target: T3, biotin-labeled CD47 extracellular domain protein (CD47-ECD) (UniProt Q08722 19-139, limits assumed, biotin-labeled (sites not given)); assay: blocking ELISA, biotin-CD47-ECD on coated SIRPα-hFc; Ab 200 nM
T3 construct: extracellular domain; also called CD47 protein

[4] = molecular target: T1, cynomolgus CD47, on CHOK1-cCD47 stable …; assay: FACS CHOK1-cCD47; Ab 40 nM
Experimental: as §1

[5] = molecular target: T4, human CD47, full length, on transfected cells (human, UniProt Q08722 19-323); assay: FACS CHOK1-hCD47; Ab 0.064 nM
T4 construct: whole, on cells; also called CHOK1-hCD47
Experimental: as §1

[6] = molecular target: T3, biotin-labeled CD47 extracellular …; assay: blocking ELISA, biotin-CD47-ECD on coated SIRPα-hFc; Ab 0.32 nM
Experimental: (§2) The plate was sealed with plastic film and incubated at 4° C. overnight. The plate was washed twice with plate washing solution [PBS+0.01% (v/v) Tween20] on the next day, and blocking solution [PBS+0.01% (v/v) Tween20 +1% (w/w) BSA] was added to block it at room temperature for 2 hours. […] After incubation at 37° C. for 2 hours, the plate was washed three times with the plate washing solution [PBS+0.01% (v/v) Tween 20]. HRP (horseradish peroxidase) labeled avidin diluent (purchased from Sigma) was added as 100 microliters per well, and after the plate was incubated for 2 hours at 37° C., it was washed 3 times with washing solution [PBS+0.01% (v/v) Tween 20]. 100 μl of TMB substrate was added to each well. After incubated at room temperature for 30 minutes, the plate was added with 100 μl of stop solution (1.0N HCl) to each well.

[7] = molecular target: T1, cynomolgus CD47, on CHOK1-cCD47 stable …; assay: FACS CHOK1-cCD47; Ab 1.6 nM
Experimental: as §1

[8] = molecular target: T2, His-tagged CD47 recombinant protein, …; assay: ELISA on coated CD47-His; Ab 0.107 nM
Experimental: (§3) The plate was sealed with plastic film and incubated at 4° C. overnight. The plate was washed twice with plate washing solution [PBS+0.01% (v/v) Tween20] the next day, and blocking solution [PBS+0.01% (v/v) Tween20 +1% (w/w) BSA] was added to block it at room temperature for 2 hours. […] After incubation at 37° C. for 2 hours, the plates were washed three times with plate washing solution [PBS+0.01% (v/v) Tween 20]. HRP (horseradish peroxidase) labeled secondary antibody (purchased from Sigma) was added, incubated at 37° C. for 2 hours, and then washed three times with plate washing solution [PBS+0.01% (v/v) Tween 20]. 1000 of TMB substrate was added to each well. After incubated at room temperature for 30 minutes, the plate was added with 100 μl of stop solution (1.0N HCl) to each well.

[9] = molecular target: T4, human CD47, full length, on transfected …; assay: FACS CHOK1-hCD47; Ab 40 nM
Experimental: as §1

[10] = molecular target: T3, biotin-labeled CD47 extracellular …; assay: blocking ELISA, biotin-CD47-ECD on coated SIRPα-hFc; Ab 1.6 nM
Experimental: as §2

[11] = molecular target: T2, His-tagged CD47 recombinant protein, …; assay: ELISA on coated CD47-His; Ab 2.667 nM
Experimental: as §3

[12] = molecular target: T4, human CD47, full length, on transfected …; assay: FACS CHOK1-hCD47; Ab 0.0128 nM
Experimental: as §1

[13] = molecular target: T2, His-tagged CD47 recombinant protein, …; assay: ELISA on coated CD47-His; Ab 0.533 nM
Experimental: as §3

[14] = molecular target: T2, His-tagged CD47 recombinant protein, …; assay: ELISA on coated CD47-His; Ab 0.021 nM
Experimental: as §3

[15] = molecular target: T2, His-tagged CD47 recombinant protein, …; assay: ELISA on coated CD47-His; Ab 0.004 nM
Experimental: as §3

[16] = molecular target: T3, biotin-labeled CD47 extracellular …; assay: blocking ELISA, biotin-CD47-ECD on coated SIRPα-hFc; Ab 0.064 nM
Experimental: as §2

[17] = molecular target: T1, cynomolgus CD47, on CHOK1-cCD47 stable …; assay: FACS CHOK1-cCD47; Ab 0.064 nM
Experimental: as §1

[18] = molecular target: T1, cynomolgus CD47, on CHOK1-cCD47 stable …; assay: FACS CHOK1-cCD47; Ab 0.0128 nM
Experimental: as §1

[19] = molecular target: T4, human CD47, full length, on transfected …; assay: FACS CHOK1-hCD47; Ab 0 nM (background)
Experimental: as §1

[20] = molecular target: T1, cynomolgus CD47, on CHOK1-cCD47 stable …; assay: FACS CHOK1-cCD47; Ab 0 nM (background)
Experimental: as §1

[21] = molecular target: T3, biotin-labeled CD47 extracellular …; assay: blocking ELISA, biotin-CD47-ECD on coated SIRPα-hFc; Ab 0.0128 nM
Experimental: as §2

[22] = molecular target: T3, biotin-labeled CD47 extracellular …; assay: blocking ELISA, biotin-CD47-ECD on coated SIRPα-hFc; Ab 8 nM
Experimental: as §2

[23] = molecular target: T4, human CD47, full length, on transfected …; assay: FACS CHOK1-hCD47; Ab 1.6 nM
Experimental: as §1

[24] = molecular target: T3, biotin-labeled CD47 extracellular …; assay: blocking ELISA, biotin-CD47-ECD on coated SIRPα-hFc; Ab 0 nM
Experimental: as §2

[25] = molecular target: T4, human CD47, full length, on transfected …; assay: FACS CHOK1-hCD47; Ab 200 nM
Experimental: as §1

[26] = molecular target: T2, His-tagged CD47 recombinant protein, …; assay: ELISA on coated CD47-His; Ab 66.667 nM
Experimental: as §3

[27] = molecular target: T1, cynomolgus CD47, on CHOK1-cCD47 stable …; assay: FACS CHOK1-cCD47; Ab 0.32 nM
Experimental: as §1

[28] = molecular target: T3, biotin-labeled CD47 extracellular …; assay: blocking ELISA, biotin-CD47-ECD on coated SIRPα-hFc; Ab 40 nM
Experimental: as §2

[29] = molecular target: T2, His-tagged CD47 recombinant protein, …; assay: ELISA on coated CD47-His; Ab 13.333 nM
Experimental: as §3

[30] = molecular target: T4, human CD47, full length, on transfected …; assay: FACS CHOK1-hCD47; Ab 0.32 nM
Experimental: as §1

[31] = molecular target: T1, cynomolgus CD47, on CHOK1-cCD47 stable …; assay: FACS CHOK1-cCD47; Ab 8 nM
Experimental: as §1

[32] = molecular target: T1, cynomolgus CD47, on CHOK1-cCD47 stable …; assay: FACS CHOK1-cCD47; Ab 200 nM
Experimental: as §1

[33] = molecular target: T4, human CD47, full length, on transfected …; assay: FACS CHOK1-hCD47; Ab 8 nM
Experimental: as §1

[34] = molecular target: T4, human CD47, full length, on transfected …; assay: flow cytometry (FACS) on CHOK1-hCD47 cells, mean fluorescence intensity
Experimental: as §1

[35] = molecular target: T5, mouse CD47, on CHOK1/mCD47 cells (mouse, UniProt Q61735 19-303); assay: flow cytometry (FACS) on CHOK1-mCD47 cells, mean fluorescence intensity
T5 construct: whole, on cells; also called murine CD47
T5 sequence (looked up): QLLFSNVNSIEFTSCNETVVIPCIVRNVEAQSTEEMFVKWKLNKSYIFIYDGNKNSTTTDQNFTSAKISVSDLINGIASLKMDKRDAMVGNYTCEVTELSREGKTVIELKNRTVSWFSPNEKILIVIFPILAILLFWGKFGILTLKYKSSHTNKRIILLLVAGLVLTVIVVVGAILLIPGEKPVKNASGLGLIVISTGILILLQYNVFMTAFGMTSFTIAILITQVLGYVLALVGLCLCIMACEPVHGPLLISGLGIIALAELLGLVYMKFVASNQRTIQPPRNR

[36] = molecular target: T3, biotin-labeled CD47 extracellular …; assay: blocking ELISA: SIRPα-hFc coated, biotin-labeled CD47-ECD added with the antibody, OD450; blocked ligand SIRPα-hFc
[37] = molecular target: T2, His-tagged CD47 recombinant protein, …; assay: BLI (Octet Red 96), antibody on AHC sensor, CD47-His 100 nM
Experimental: The affinity constant was determined using an Octet Red 96 instrument (purchased from Fortiebio). The specific operation and method shall be in accordance with the instrument instruction and detailed method provided by the manufacturer. Specifically, the affinity was determined using a streptomycin avidin sensor (SA sensor, purchased from Fortiebio). CD47 chimeric antibody was diluted to 10 μg/ml with PBS solution containing 0.1% (w/w) BSA, 0.02% (v/v) Tween, pH 7.4, and then coupled with AHC sensor for reaction. The sensor bound with immunogen A was incubated with CD47-His protein diluted to 100 nM at 30° C. for 3 minutes, and then incubated with PBS solution containing 0.1% (w/v) BSA, 0.02% (v/v) Tween, pH 7.4 at 30° C. for 5 minutes. The change of interference wavelength was detected by Octet instrument to detect the binding and dissociation of antibody and immunogen A, and then the dissociation constant and binding constant were fitted by Octet® User Software software. The affinity constant was the ratio of the dissociation constant to the binding constant.

B1: Hu5F9-G4 (antibody, V domains shown)
VH: QVQLVQSGAEVKKPGASVKVSCKASGYTFTNYNMHWVRQAPGQRLEWMGTIYPGNDDTSYNQKFKDRVTITADTSASTAYMELSSLRSEDTAVYYCARGGYRAMDYWGQGTLVTVSS
VL: DIVMTQSPLSLPVTPGEPASISCRSSQSIVYSNGNTYLGWYLQKPGQSPQLLIYKVSNRFSGVPDRFSGSGSGTDFTLKISRVEAEDVGVYYCFQGSHVPYTFGQGTKLEIKR
[1]
  EC50 (read off the curve): ~3 nM

B2: 132D1E5 (antibody, V domains shown)
VH: QVQLQQPGAELVRPGSSVKLSCKASGYTFTNNWMHWVKQRPLQGLEWIGNIDPSDSETHYNQKFKDKATLTVDKSSTTAYIQLSSLTSEDSAVYYCARWRGGGRGAMDYWGQGTSVTVSS
VL: DVQITQSPSYLAASPGETITINCRTSKNISKFLAWYQEKPGKTNKLLIYSGSTLQSGIPSRFSGSGSGTDFTLTISNLEPEDFAMYYCQQHNEYPWTFGRGTKLEIK
notes: Murine hybridoma antibody purified on protein G
[2]
  OD450 nm: 0.06
[3]
  OD450 nm of CD47 bound to SIRPα: 0.08
[4]
  mean fluorescence intensity: 5610
[5]
  mean fluorescence intensity: 318
[6]
  OD450 nm of CD47 bound to SIRPα: 0.79
[7]
  mean fluorescence intensity: 6060
[8]
  OD450 nm: 1.83
[9]
  mean fluorescence intensity: 8230
[10]
  OD450 nm of CD47 bound to SIRPα: 0.16
[11]
  OD450 nm: 3.07
[12]
  mean fluorescence intensity: 88.4
[13]
  OD450 nm: 2.96
[14]
  OD450 nm: 0.49
[15]
  OD450 nm: 0.14
[16]
  OD450 nm of CD47 bound to SIRPα: 2.55
[17]
  mean fluorescence intensity: 689
[18]
  mean fluorescence intensity: 224
[19]
  mean fluorescence intensity: 18.1
[20]
  mean fluorescence intensity: 72.5
[21]
  OD450 nm of CD47 bound to SIRPα: 2.92
[22]
  OD450 nm of CD47 bound to SIRPα: 0.07
[23]
  mean fluorescence intensity: 3750
[24]
  OD450 nm of CD47 bound to SIRPα: 2.89
[25]
  mean fluorescence intensity: 7100
[26]
  OD450 nm: 2.88
[27]
  mean fluorescence intensity: 2060
[28]
  OD450 nm of CD47 bound to SIRPα: 0.08
[29]
  OD450 nm: 2.95
[30]
  mean fluorescence intensity: 1330
[31]
  mean fluorescence intensity: 8740
[32]
  mean fluorescence intensity: 6970
[33]
  mean fluorescence intensity: 6310

B3: 29A03 WT (antibody, V domains shown)
VH: EVQLQQSGAELVKPGASVKMSCKASGYTFTNYWITWVKQRPGQGLEWIGDIYPVSGGTDYNEKFKTRATLTVDTSSSTAYMHLSSLTSEDSAVYYCARKGRGGVDYWGQGTTLTVSS
VL: DILMTQTPLSLPVSLGDQASISCRSSQSIVHSNGNTYLEWYLQKPGQSPKLLIYKVSNRFSGVPDRFSGSGSGTDFTLKISRVEAEDLGVYFCSQSTHVPYTFGGGTKLEIK
notes: WT = NG site of CDR-L1 not mutated
[1]
  EC50 (read off the curve): ~3 nM
[34]
  EC50 (read off the curve): ~5 nM
[35]
  EC50 (read off the curve): ~10 nM

B4: 29A03 QG (antibody, V domains shown)
VH: B3 VH
VL: B3 VL with N33Q
[1]
  EC50 (read off the curve): ~3 nM
[34]
  EC50 (read off the curve): ~5 nM
[36]
  IC50 (read off the curve): ~3 nM
[35]
  EC50 (read off the curve): ~10 nM

B5: c29A03NA (antibody, V domains shown)
VH: B3 VH
VL: B3 VL with G34A
notes: Phage-derived clone 29A03 with the NG site of CDRL1 mutated to NA
[1]
  EC50 (read off the curve): ~3 nM
[34]
  EC50 (read off the curve): ~5 nM
[37]
  Kd: 4.69 nM
  koff: 0.00207 s⁻¹
  kon: 442000 M⁻¹ s⁻¹
[36]
  IC50 (read off the curve): ~1 nM
[35]
  EC50 (read off the curve): ~10 nM

Reference: patent US20220017615A1 (SHANGHAI PHARMAEXPLORER, published 2022)
